Assay results as given in article PMC11642994, “AGC family kinase of Entamoeba histolytica: Decoding the members biochemically” (PLOS Pathogens, 2024).
“Also recorded” adds a separate entry of the source. No end group written: not given here.

Key:
[1] = target: EhAGCK1 WT (Entamoeba histolytica, UniProt C4M2W0); assay: Microscale Thermophoresis (MST), EhAGCK1 WT; format: binding
Protocol: Microscale Thermophoresis (MST) was performed in the presence of full-length and kinase-dead EhAGCK1 and EhAGCK2 proteins, along with HsGSK3, EhRhoGEF, and EhCoactosin peptide substrates. Proteins were labelled using a His-tag labelling kit, RED-tris-NTA 2nd Generation (Nano Temper Technologies, San Francisco, CA, USA). A brief labelling reaction was performed in a buffer containing (50 mM Tris-Cl pH 8, 150 mM NaCl, 1 mM β-ME and 5% glycerol) with a protein concentration of 20 nM and a molar dye: protein ratio of approximately 3:1. The mixture was kept at room temperature for 30 min, followed by centrifugation at 15000 g for 10 min at 4°C. A series of 16 1:1 dilutions were prepared using the same buffer, resulting in peptide concentrations ranging from 500 μM to […]. Following a 10 min incubation, the samples were loaded into standard monolith NT.115 capillaries from Nano Temper Technologies. […] Data from three independently pipetted measurements were analysed using MO. […]
The kinase assay data presented here are the mean ± standard error (SE) of n≥3 of three independent experiments. The Km and Vmax were determined from a direct, nonlinear fit of [V] versus [S] plots using the Michaelis-Menten equation: V=Vmax[S]/Km+[S] using the GraphPad Prism 9.0 software package (GraphPad Software Inc., CA, USA). […]

[2] = target: T1, EhAGCK2 WT (Entamoeba histolytica AGC family kinase 2, EHI_053040), full-length recombinant His-tagged protein (Entamoeba histolytica, UniProt C4M3C2 1-434); assay: MST; His-tagged kinase labelled with RED-tris-NTA 2nd Generation dye, kept constant (50 nM by the legend); unlabelled peptide in 16 1:1 dilutions, 500 uM to 153 nM as printed; 50 mM Tris-Cl pH 8, 150 mM NaCl, 1 mM beta-ME, 5% glycerol; 25 C; Monolith NT.115, 50% LED, medium MST power; conditions: both partners purified
T1 construct: source: E. coli C41(DE3), purified (Ni2+-NTA)
T1 sequence: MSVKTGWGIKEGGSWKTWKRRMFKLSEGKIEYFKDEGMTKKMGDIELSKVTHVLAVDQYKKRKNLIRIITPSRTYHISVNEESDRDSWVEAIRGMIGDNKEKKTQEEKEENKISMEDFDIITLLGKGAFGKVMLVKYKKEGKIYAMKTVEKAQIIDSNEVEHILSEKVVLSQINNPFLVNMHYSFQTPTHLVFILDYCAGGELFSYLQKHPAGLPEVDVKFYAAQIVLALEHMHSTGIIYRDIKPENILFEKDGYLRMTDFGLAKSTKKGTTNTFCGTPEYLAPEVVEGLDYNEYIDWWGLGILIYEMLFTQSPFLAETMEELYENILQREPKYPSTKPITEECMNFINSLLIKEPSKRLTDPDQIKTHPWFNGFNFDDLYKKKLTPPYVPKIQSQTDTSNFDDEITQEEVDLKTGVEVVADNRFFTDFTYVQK

[3] = tested on: HsGSK3 peptide; assay: ADP-Glo kinase activity of kinase variants with human GSK3 peptide in MgCl2 and MnCl2 buffers; format: biochemical; conditions: for kinase activity with HsGSK3 peptide in presence of Mn2+: Mn2+ present
Protocol: The phosphorylation activity of kinases was measured using the ADP-Glo kinase assay kit according to the manufacturer’s protocol with few modifications (Promega, Madison, WI, Catalogue number V6930). Assays were performed in a Corning 384-well low-volume white round bottom polystyrene NBS microplate with a total volume of 32 μl in the ratio of 1:1:2, corresponding to the kinase reaction, ADP-Glo reagent, and detection reagent, respectively. The kinase reaction was performed in an 8 μl volume containing 4 μl of purified protein kinases, 2 μl of peptide substrate, and 2 μl of ATP (Promega, Madison, WI). The working concentration of all the kinase reaction components was prepared in the standard kinase assay buffer (40 mM Tris-Cl pH 7.5, 20 mM MgCl2, 2 mM DTT). Along with other controls, only buffer-negative controls without protein kinase, substrate, and ATP were included in the kinase assay. Kinase assay reactions in each well were started immediately by adding ATP. The reactions were allowed to continue for 1 h at 30°C in the incubator chamber without shaking. The kinase assay was quenched by adding 8 μl of ADP-Glo reagent in each well before adding ADP-Glo reagent. The reaction plate was incubated for 5 min at room temperature. Termination reactions were allowed to proceed for 40 min at room temperature. ADP-Glo reagent, in addition to quenching the reaction, scavenges the unconsumed ATP from the reaction. In the final step of the ADP-Glo kinase assay, 16 μl of kinase detection reagent was added to each well and incubated for 40 min to simultaneously convert ADP to ATP and allow the newly synthesised ATP to be measured using a luciferase/luciferin reaction. The luminescent signal generated was measured using a SpectraMax i3x Multi-Mode Microplate Reader (Molecular Devices), and it was proportional to the ADP concentration produced and correlated with the kinase activity.
The kinase assay data presented here are the mean ± standard error (SE) of n≥3 of three independent experiments. The Km and Vmax were determined from a direct, nonlinear fit of [V] versus [S] plots using the Michaelis-Menten equation: V=Vmax[S]/Km+[S] using the GraphPad Prism 9.0 software package (GraphPad Software Inc., CA, USA). Additionally, the Microscale Thermophoresis (MST) experiments were conducted using the Monolith NT.11.5 instrument, with triplicate runs. Statistical comparisons were made using Student’s t-test. Differences in mean values were considered significant at *p-value≤0.05, **p-value≤0.01, ***p-value≤0.001, ****p-value≤0.0001.

[4] = tested on: autophosphorylation; assay: ATP biotinylation kinase assay (autophosphorylation, SA-HRPO western blot); format: biochemical, Entamoeba histolytica; conditions: 4 μM kinase (EhPDK1 2 μM), 20 μM biotin-labelled ATP, 40 mM Tris-Cl pH 7.8, 10 mM MgCl2, 2 mM DTT, 30°C, 1 h
Protocol: ATP biotinylation assays were performed in the presence of 4 μM of EhAGCK1 (WT, T275D, and KDD1) and EhAGCK2 (WT, T274D, and KDD2) along with 2 μM of wild-type EhPDK1 in the presence of activation buffer 40 mM Tris-Cl pH 7.8, 10 mM MgCl2, and 2 mM DTT and incubated at 30°C for 1 h. The reaction was triggered by adding 20 μM biotin-labelled ATP (Catalogue NU-970-BIO, Jena Bioscience). 20 μl of the reaction was collected at the indicated time point and quenched by the addition of 4x SDS-loading dye. After gel electrophoresis, phosphorylated proteins were visualized by immunoblotting using HRPO-conjugated streptavidin (Invitrogen).
ATP biotinylated protein samples were separated by SDS-PAGE and then electro-transferred to PVDF membrane (Pall life sciences). The membrane was blocked overnight by 5% BSA (G-Biosciences) in TBS-T (TBS with 0.1% Tween 20) and stained with Ponceau S. This blocking process was done overnight at 4°C. The membrane was then incubated with 1:1000 dilution of HRPO-conjugated streptavidin (Invitrogen) at room temperature. Following antibody incubation, the blots were carefully cleaned with TBS-T. Band detection was carried out with a Millipore ECL kit.

[5] = target: T2, EhAGCK1 WT (Entamoeba histolytica AGC family kinase 1, EHI_188930), full-length recombinant His-tagged protein (Entamoeba histolytica, UniProt C4M2W0 1-433); assay: MST; His-tagged kinase labelled with RED-tris-NTA 2nd Generation dye, kept constant (50 nM by the legend); unlabelled peptide in 16 1:1 dilutions, 500 uM to 153 nM as printed; 50 mM Tris-Cl pH 8, 150 mM NaCl, 1 mM beta-ME, 5% glycerol; 25 C; Monolith NT.115, 50% LED, medium MST power; conditions: both partners purified
T2 construct: also called His-EhAGCK1; source: E. coli C41(DE3), purified (Ni2+-NTA)
T2 sequence: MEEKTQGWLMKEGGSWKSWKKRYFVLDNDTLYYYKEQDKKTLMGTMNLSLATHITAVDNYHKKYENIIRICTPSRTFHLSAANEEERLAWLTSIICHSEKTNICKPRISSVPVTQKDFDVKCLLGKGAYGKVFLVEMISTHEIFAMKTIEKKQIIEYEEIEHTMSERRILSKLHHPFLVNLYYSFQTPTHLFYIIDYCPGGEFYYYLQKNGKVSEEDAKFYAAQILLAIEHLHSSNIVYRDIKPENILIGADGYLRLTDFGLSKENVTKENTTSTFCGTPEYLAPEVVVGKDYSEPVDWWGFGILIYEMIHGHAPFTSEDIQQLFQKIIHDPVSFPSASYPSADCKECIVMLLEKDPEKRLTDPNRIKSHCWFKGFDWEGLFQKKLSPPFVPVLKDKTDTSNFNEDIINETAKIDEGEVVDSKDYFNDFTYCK

[6] = 50 μM HsGSK3 peptide, 250 μM ATP, 60 min, 30°C

With “GRPRTTSFAESCK [HsGSK3, reference compound]” as the molecule, how does the Kd [1] read?
Its Kd is 2610 nM.

B1: EhCoactosin peptide (from Coactosin, EHI_168340) (peptide)
chain: KAGGADYSFNTTSN
B1 was tested. Which Kd [2] did it give?
The Kd was 413 nM.

B2: EhAGCK2 WT: recombinant full-length wild-type His-tagged AGC family kinase 2 of E. histolytica (protein)
chain: MSVKTGWGIKEGGSWKTWKRRMFKLSEGKIEYFKDEGMTKKMGDIELSKVTHVLAVDQYKKRKNLIRIITPSRTYHISVNEESDRDSWVEAIRGMIGDNKEKKTQEEKEENKISMEDFDIITLLGKGAFGKVMLVKYKKEGKIYAMKTVEKAQIIDSNEVEHILSEKVVLSQINNPFLVNMHYSFQTPTHLVFILDYCAGGELFSYLQKHPAGLPEVDVKFYAAQIVLALEHMHSTGIIYRDIKPENILFEKDGYLRMTDFGLAKSTKKGTTNTFCGTPEYLAPEVVEGLDYNEYIDWWGLGILIYEMLFTQSPFLAETMEELYENILQREPKYPSTKPITEECMNFINSLLIKEPSKRLTDPDQIKTHPWFNGFNFDDLYKKKLTPPYVPKIQSQTDTSNFDDEITQEEVDLKTGVEVVADNRFFTDFTYVQK
modifications: left off: His tag, end not stated, kept
notes: recombinant full-length wild-type His-tagged AGC family kinase 2 of E. histolytica
How did the “kinase activity with HsGSK3 peptide in Mg2+ / without Mn2+ (words)” value ([3]; Mg2+, 50 μM HsGSK3 peptide, kinase 0-80 μM, 250 μM ATP) turn out when B2 was run?
Its value is “phosphorylates HsGSK3 peptide”.

What about the “ion preference for kinase activity” value ([3]; MgCl2 versus MnCl2 buffer, HsGSK3 peptide) of the same molecule?
Its value is “phosphorylates the peptide substrates in both MgCl2 and MnCl2 buffers; also recorded: optimal activity with Mg^2+”.

What about the “kinase activity with HsGSK3 peptide in presence of Mn2+” value [3, 6] of the same molecule?
The value was “showed no increment, in fact, a small decrease in the average kinase activity”.

What about the “Fold change (MgCl2: MnCl2)” value ([3]; S1 Table, kinase activity in MgCl2 and MnCl2 buffers, 50 μM HsGSK3 peptide, 250 μM ATP, 60 min, 30°C) of the same molecule?
Its value is 0.63.

And the “autophosphorylation activity (words)” value [4]?
Its value is “exhibited autophosphorylation activity”.

What about the “autophosphorylation activity (words)” value ([4]; listed as EhAGCK2) of the same molecule?
The value was “able to accept biotin-ATP as substrate and underwent autophosphorylation”.

B3: EhRhoGEF peptide (from RhoGEF, EHI_008090) (peptide)
chain: SSPSSVPAAQSTTPVNVPK
With B3 as the molecule, how does the Kd [5] read?
The Kd was 307 nM.

B4: KDD1: kinase-dead domain EhAGCK1 (K147A and D241A) (protein)
chain: MEEKTQGWLMKEGGSWKSWKKRYFVLDNDTLYYYKEQDKKTLMGTMNLSLATHITAVDNYHKKYENIIRICTPSRTFHLSAANEEERLAWLTSIICHSEKTNICKPRISSVPVTQKDFDVKCLLGKGAYGKVFLVEMISTHEIFAMATIEKKQIIEYEEIEHTMSERRILSKLHHPFLVNLYYSFQTPTHLFYIIDYCPGGEFYYYLQKNGKVSEEDAKFYAAQILLAIEHLHSSNIVYRAIKPENILIGADGYLRLTDFGLSKENVTKENTTSTFCGTPEYLAPEVVVGKDYSEPVDWWGFGILIYEMIHGHAPFTSEDIQQLFQKIIHDPVSFPSASYPSADCKECIVMLLEKDPEKRLTDPNRIKSHCWFKGFDWEGLFQKKLSPPFVPVLKDKTDTSNFNEDIINETAKIDEGEVVDSKDYFNDFTYCK
modifications: left off: His tag, end not stated, kept
How did the “kinase activity with HsGSK3 peptide in presence of Mn2+” value [3, 6] turn out when B4 was run?
The value was “remained inactive”.

What about the “autophosphorylation activity (words)” value [4] of the same molecule?
Its value is “remain inactive”.
